“Also recorded” adds a separate entry of the source.
How the values were obtained:
NOS3 [1] = assay: Oxyhemoglobin assay of NO production by kinase-treated NOS3; assay type: biochemical, human; conditions: oxyHb assay, 2.5 µM NOS3 with ERK2 14 nM (N = 10), p38α 14 nM (N = 4), JNK1α1-GST 63 nM (N = 3) or PKA 14 nM (N = 4), 30 min; versus untreated NOS3
Experimental: (§1) Active (HIS‐NOS3) was incubated alone or with individual kinases (ERK2, p38α, JNK1α1, and PKA) in 100 µL reaction buffer (20 mM HEPES, 0.5 mM DTT, 5 mM MgCl2, 0.5 mM ATP, and 10% glycerol at a pH of 7.4). The reactions were performed at 22‐25 °C for up to 1 h, and for the examination of nitric oxide activity, samples were incubated on ice for the immediate detection of NO via the oxyhemoglobin to methemoglobin assay (see below). For immunoblotting analysis to examine phosphorylation, kinase samples were quenched with 2× sample buffer spiked with 25 mM DTT and heated to 95 °C for 5 min. Boiled samples (at equal volumes) were electrophoresed and transferred to PDVF for immunoblot staining.
The oxyhemoglobin assay (oxyHb assay) is a spectroscopic method that measures the oxidative reaction of oxyhemoglobin at 421 nm (oxyHb) and methemoglobin (metHb) at 401 nm. Kinase assay reactions quenched on ice were used to measure NO synthesis and consumption. All oxyHb reactions were performed at 25 °C in a BioTek 96‐well UV‐visible spectrophotometer. […] Absorbance at 401 nm and 421 nm were read for 1 m at 15‐s intervals. […] Measurements were recorded for 10 min at 15‐s intervals.
To calculate NOS3 activity, the change in absorbance/unit time was divided by the extinction coefficient (ε401‐421 = 77 200 M ^−1cm^−1 (ε401 = 38 600 M ^−1cm^−1)). […]

NOS3 (bovine) = assay: BLI binding of JNK1α1 to full-length NOS3
Experimental: Biolayer interferometry (BLI) experiments were performed on a FortéBio (Menlo Park, CA) Octet QK biosensor using streptavidin (SA) sensors. Assays were performed in opaque 96‐well microplates at 25 °C. All volumes were 200 μL. Active GST‐JNK1α1 (SignalChem) was biotinylated by amine crosslinking to NHS‐LC‐LC‐biotin (succinimidyl‐6‐[biotinamido]‐6‐hexanamidohexanoate) (Thermo Fisher, Waltham, MA, USA). Reactions were performed at a 5 : 1 molar ratio of biotin to protein for 30 min at room temperature followed by separation of protein from free biotin by passage over a desalting column. Biotinylated JNK1α1 was loaded onto sensors for 300 s, which was sufficient to saturate them. Baseline was established by dipping sensors into binding buffer (50 mM Tris, pH 7.4, 10 mM NaCl, 10% glycerol, 0.01% Tween‐20) prior to moving sensors to wells containing varying concentrations of serially diluted NOS3 in the same buffer. Association was measured for 300 s, after which sensors were moved to wells containing buffer only and dissociation was monitored for another 300 s. […] Total binding was used for analysis as nonspecific binding measured by exposing sensors without ligand to analyte was negligible at all NOS3 concentrations used; that is, total binding was effectively specific binding due to very low nonspecific binding. […]

NOS1 = assay: BLI binding of MAP kinases to NOS1; design: species or system bovine; conditions: purified active JNK1α1
NOS3 [2] = assay: In vitro kinase assay with NOS3, phospho-specific immunoblotting; assay type: biochemical, human; conditions: active kinases with NOS3, 5 and 60 min, immunoblot with anti-pS114
Experimental: as §1
All samples were loaded at equal volumes on 3–8% gradient tris‐acetate gels. All gels were transferred to PVDF membranes and transferred for either 2 h at 40V or for 20V overnight. Membranes were blocked with one block (Li‐Cor Biosciences) for 30 m and incubated with respective antibodies (at manufacturers recommend concentrations for immunoblotting, 1 : 500 for the anti‐pS600‐NOS3) overnight at 4 °C. Blots were brought to RT for 30 m and washed 3× with 1X TBST for 10 m, probed with a fluorometric secondary antibody (Li‐Cor IRDye®) for 1 h, and washed before visualizing with a Li‐Cor Odyssey.

NOS3 [3] = assay: TCSPC fluorescence lifetime, conformation of NOS3; conditions: FMN excited at 473 nm, detected at 525 nm; NOS3 holoenzyme
Experimental: Time‐resolved intensity decays were recorded using time‐correlated single‐photon counting fluorescence lifetime spectrometry (TCSPC FLT) to determine whether phosphorylation by JNK1α1 changes the conformation of NOS3.

Kd (NOS3 (bovine); 400 nM trace eliminated from fit): 18 nM | kon (NOS3 (bovine); BLI, active GST-JNK1α1 ligand, NOS3 analyte, 25 °C, pH 7.4, global one-state fit): 4106 M⁻¹ s⁻¹
B1: mitogen‐activated protein kinase 8 (protein)
chain: MSRSKRDNNFYSVEIGDSTFTVLKRYQNLKPIGSGAQGIVCAAYDAILERNVAIKKLSRPFQNQTHAKRAYRELVLMKCVNHKNIIGLLNVFTPQKSLEEFQDVYIVMELMDANLCQVIQMELDHERMSYLLYQMLCGIKHLHSAGIIHRDLKPSNIVVKSDCTLKILDFGLARTAGTSFMMTPYVVTRYYRAPEVILGMGYKENVDLWSVGCIMGEMVCHKILFPGRDYIDQWNKVIEQLGTPCPEFMKKLQPTVRTYVENRPKYAGYSFEKLFPDVLFPADSEHNKLKASQARDLLSKMLVIDASKRISVDEALQHPYINVWYDPSEAEAPPPKIPDKQLDEREHTIEEWKELIYKEVMDLEERTKNGVIRGQPSPLAQVQQ
modifications: active (phosphorylated) form; biotinylated by amine crosslinking to NHS-LC-LC-biotin, 5 : 1 molar ratio of biotin to protein; left off: GST, end not stated, kept
notes: c-Jun N-terminal kinase
NO production / NOS3 activity (NOS3 [1]): do not significantly change NO production; also recorded: did not alter in vitro NOS3 activity | binding to NOS1 (NOS1): No evidence of JNK1α1 binding to NOS1 beyond nonspecific binding; also recorded: no binding could be detected | phosphorylation of NOS3 at S114 (NOS3 [2]): predominantly phosphorylated NOS3 at S114; also recorded: phosphorylates S114; also recorded: easily detected when compared to ERK2 | conformation of NOS3 (fluorescence decay) (NOS3 [3]): no significant change in conformation; also recorded: did not differ significantly from that of unphosphorylated NOS3; also recorded: did not meaningfully change the confirmation of NOS3
